Assay [1] addresses HCV E2 envelope glycoprotein (hepatitis C virus) (UniProt P27958). In words: ELISA of E2 on AP33 alanine mutants. A general note: In an ELISA, binding on a coated surface is turned into a signal by an enzyme label.
Assay [2] has as its target AP33 antibody (wild type mouse monoclonal). In words: peptide inhibition ELISA: antibody pre-incubated with peptide, then transferred to E2-coated plates (competitor: E2) [panel AP33].

Chain of HCV E2 envelope glycoprotein (hepatitis C virus) (P27958 384-746 limits assumed): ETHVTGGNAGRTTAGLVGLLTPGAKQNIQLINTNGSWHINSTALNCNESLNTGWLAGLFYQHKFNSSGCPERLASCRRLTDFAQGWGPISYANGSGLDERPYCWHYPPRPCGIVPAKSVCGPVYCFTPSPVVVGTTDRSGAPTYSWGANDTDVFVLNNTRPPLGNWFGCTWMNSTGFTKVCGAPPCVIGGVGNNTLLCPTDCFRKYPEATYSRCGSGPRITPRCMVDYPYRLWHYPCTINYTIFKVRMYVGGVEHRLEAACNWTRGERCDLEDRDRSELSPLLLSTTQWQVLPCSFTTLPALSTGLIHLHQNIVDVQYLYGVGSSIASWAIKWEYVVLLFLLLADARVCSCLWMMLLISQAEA
Chain of AP33 antibody (wild type mouse monoclonal) (VH, as listed by the source, chain 1 of 2): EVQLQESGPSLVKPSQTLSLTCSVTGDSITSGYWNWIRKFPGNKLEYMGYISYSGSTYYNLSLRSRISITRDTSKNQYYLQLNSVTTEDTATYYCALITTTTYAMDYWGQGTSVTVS
Chain of AP33 antibody (wild type mouse monoclonal) (VL, as listed by the source, chain 2 of 2): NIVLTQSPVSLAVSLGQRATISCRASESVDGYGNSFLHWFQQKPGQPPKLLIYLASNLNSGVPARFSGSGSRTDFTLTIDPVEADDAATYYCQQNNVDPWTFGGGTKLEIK

AP33 mutant FL32A (antibody) came in with a reduction of binding relative to WT AP33 in assay [1] of 90%.

AP33 mutant YH58A (antibody) came in with a reduction of binding relative to WT AP33 in assay [1] of 90%. Same read-out and setting: then AP33 mutant WL96A (antibody), with 90%. Take AP33 mutant IH95A (antibody): in assay [1], the reduction of binding relative to WT AP33 was 90%. The same measure, in the same setting: then AP33 mutant NL91A (antibody), with 90%. Still for that read-out and setting: as for AP33 mutant YH33A (antibody), the figure is 90%. In assay [2], “peptide corresponding to the WT AP33 epitope (aa residues 412-424 of E2) (from UniProt P27958 412-424)” returned an IC50 (read off the curve) of 0.1 µg/mL.

(Values after patent US20170283484A1.)
